Results taken from publication PMC5362230, “MCPIP1, alias Regnase-1 binds and cleaves mRNA of C/EBPβ” (PLoS ONE, 2017).

Molecular target: the molecule itself
Assay: native gel or EMSA; increasing amounts of purified protein (0-200 pmol) incubated with 2 pmol in vitro transcribed 3'UTR fragments of C/EBPβ mRNA; 25 mM Tris, 150 mM NaCl, 2.5 mM MgCl2, 2.5 mM DTT, 0.5 mM EDTA, 0.025 mM ZnCl2, pH 8.3; on ice 20 min; 0.8% agarose gel in TAE; oligomers read from heavier protein-RNA complexes

B1: Full length human MCPIP1 (D141N) recombinant protein (enzyme, UniProt Q5D1E8 1-599, looked up)
chain: MSGPCGEKPVLEASPTMSLWEFEDSHSRQGTPRPGQELAAEEASALELQMKVDFFRKLGYSSTEIHSVLQKLGVQADTNTVLGELVKHGTATERERQTSPDPCPQLPLVPRGGGTPKAPNLEPPLPEEEKEGSDLRPVVINGSNVAMSHGNKEVFSCRGILLAVNWFLERGHTDITVFVPSWRKEQPRPDVPITDQHILRELEKKKILVFTPSRRVGGKRVVCYDDRFIVKLAYESDGIVVSNDTYRDLQGERQEWKRFIEERLLMYSFVNDKFMPPDDPLGRHGPSLDNFLRKKPLTLEHRKQPCPYGRKCTYGIKCRFFHPERPSCPQRSVADELRANALLSPPRAPSKDKNGRRPSPSSQSSSLLTESEQCSLDGKKLGAQASPGSRQEGLTQTYAPSGRSLAPSGGSGSSFGPTDWLPQTLDSLPYVSQDCLDSGIGSLESQMSELWGVRGGGPGEPGPPRAPYTGYSPYGSELPATAAFSAFGRAMGAGHFSVPADYPPAPPAFPPREYWSEPYPLPPPTSVLQEPPVQSPGAGRSPWGRAGSLAKEQASVYTKLCGVFPPHLVEAVMGRFPQLLDPQQLAAEILSYKSQHPSE
notes: Monocyte chemoattractant protein-1-induced protein 1 (MCPIP1, Regnase-1), human, full length; point mutation D141N in the PIN domain abolishes RNase activity; also called Regnase-1 D141N; source: recombinant, purified
binding result: binds
